# From patent US20080058263A1 (published 2008)
# Numbering of substitutions follows the chain as printed.
# T1: VEGFR-3-Fc (UniProt P35916 25-328)
# T1 construct: domain: first three Ig domains; conditioned supernatant of 293T cells; also called VEGFR-3-Fc fusion protein; not shown: Fc fragment of the pIg vector
# T1 sequence (looked up): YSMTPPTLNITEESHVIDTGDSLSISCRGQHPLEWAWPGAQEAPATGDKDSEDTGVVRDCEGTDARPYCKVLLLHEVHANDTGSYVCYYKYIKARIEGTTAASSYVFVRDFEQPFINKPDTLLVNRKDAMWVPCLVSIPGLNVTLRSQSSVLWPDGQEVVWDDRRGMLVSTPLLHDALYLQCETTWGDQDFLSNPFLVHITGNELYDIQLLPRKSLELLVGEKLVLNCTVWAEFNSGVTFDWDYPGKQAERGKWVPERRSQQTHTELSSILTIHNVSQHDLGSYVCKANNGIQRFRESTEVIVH
# B1: 12-3 (ligand)
# chain: GQNHHEVVKFMDVYQRSYCHPIETLVDIFQEFGVATNTFFKPPCVSVYRCGGCCNSEGLQCVPTEESNITMQIMRIKPHQGQHIGEMSFLQHNKCECRPKKDLVFEQKLISEEDLNSAVDHHHHHH
# B2: 12-7 (ligand)
# chain: B1 chain with L90A, Q91N, N93T, K94S, E96R, R98M, P99S, K101L
# notes: also called super-VEGF
# B3: 12-9 (ligand)
# chain: GQNHHEVVKFMDVYQRSYCHPIETLVDIFQEFGVATNTFFKPPCVSVYRCGGCCNDEGLECVPTEESNITMQIMRITVPLSQGPKPVTISFLQHNKCECRPKKDLVFEQKLISEEDLNSAVDHHHHHH
# B4: 12-13 (ligand)
# chain: B3 chain with L92A, Q93N, N95T, K96S, E98R, R100M, P101S, K103L, D104N
# notes: clone acquired a point mutation, Asp to Asn at the last C-terminal amino acid of the hybrid
# B5: 12-15 (ligand)
# chain: B3 chain with D56S, E60Q, L92A, Q93N, N95T, K96S, E98R, R100M, P101S, K103L
# B6: 12-11 (ligand)
# chain: B3 chain with D56S, E60Q
# notes: also called super-VEGF
# B7: 23-6 (ligand)
# chain: AHYNTEILKSIDNEWRKTQCMPREVCIDVGKEYPDEIEYIFKPPCVSVYRCGGCCNDEGLECMNTSTSYLSKTLFEIKPHQGQHIGEMSFANHTSCRCMSKLD
# B8: 21-2 (ligand)
# chain: AHYNTEILKSIDNEWRKTQCMPREVCIDVGKEYPDEIEYIFKPSCVPLMRCGGCCNDEGLECMNTSTSYLSKTLFEIKPHQGQHIGEMSFLQHNKCECRPKKD
# B9: 21-6 (ligand)
# chain: B7 chain with P44S, S47P, V48L, Y49M
# B10: 21-8 (ligand)
# chain: B7 chain with P44S, S47P, V48L, Y49M, D57S, E61Q
# B11: 22-6 (ligand)
# chain: B7 chain with Y33F, P34G, D35V, E36A, I37T, E38N, Y39T, I40F
# B12: 22-8 (ligand)
# chain: B7 chain with Y33F, P34G, D35V, E36A, I37T, E38N, Y39T, I40F, D57S, E61Q
# B13: 23-2 (ligand)
# chain: B8 chain with S44P, P47S, L48V, M49Y
# B14: 23-4 (ligand)
# chain: B8 chain with S44P, P47S, L48V, M49Y, D57S, E61Q
# B15: 23-8 (ligand)
# chain: B7 chain with D57S, E61Q
# B16: 24-6 (ligand)
# chain: AHYNTEILKSIDNEWRKTQCMPREVCIDVGKEFGVATNTFFKPSCVPLMRCGGCCNDEGLECMNTSTSYLSKTLFEIKPHQGQHIGEMSFANHTSCRCMSKLD
# B17: 51-6 (ligand)
# chain: AHYNTEILKSIDNEWRKTQCMPIETLVDIFQEYPDEIEYIFKPSCVPLMRCGGCCNDEGLECMNTSTSYLSKTLFEIKPHQGQHIGEMSFANHTSCRCMSKLD
# B18: 53-6 (ligand)
# chain: B17 chain with S44P, P47S, L48V, M49Y
# B19: 53-8 (ligand)
# chain: B17 chain with S44P, P47S, L48V, M49Y, D57S, E61Q
# B20: 71-6 (ligand)
# chain: GQNHHEVVKSIDNEWRKTQCMPREVCIDVGKEYPDEIEYIFKPSCVPLMRCGGCCNDEGLECMNTSTSYLSKTLFEIKPHQGQHIGEMSFANHTSCRCMSKLD
# B21: 73-6 (ligand)
# chain: B20 chain with S44P, P47S, L48V, M49Y
# B22: 73-8 (ligand)
# chain: B20 chain with S44P, P47S, L48V, M49Y, D57S, E61Q
# B23: 12-14 (ligand)
# chain: GQNHHEVVKFMDVYQRSYCHPIETLVDIFQEFGVATNTFFKPPCVSVYRCGGCCNDEGLECMNTSTSYLSKTLFEITVPLSQGPKPVTISFANHTSCRCMSKLDL
# B24: 81-9 (ligand)
# chain: AHYNTEILKFMDVYQRSYCHPIETLVDIFQEYPDEIEYIFKPSCVPLMRCGGCCNDEGLECVPTEESNITMQIMRITVPLSQGPKPVTISFLQHNKCECRPKKD
# B25: 81-11 (ligand)
# chain: B24 chain with D56S, E60Q
# B26: 81-13 (ligand)
# chain: B24 chain with L92A, Q93N, N95T, K96S, E98R, R100M, P101S, K103L
# B27: 81-15 (ligand)
# chain: B24 chain with D56S, E60Q, L92A, Q93N, N95T, K96S, E98R, R100M, P101S, K103L
# B28: 13-1 (ligand)
# chain: GQNHHEVVKFMDVYQRSYCHPIETLVDIFQEYPDEIEYIFKPPCVSVYRCGGCCNDEGLECVPTEESNITMQIMRIKPHQGQHIGEMSFLQHNKCECRPKKD
# B29: 13-5 (ligand)
# chain: B28 chain with L90A, Q91N, N93T, K94S, E96R, R98M, P99S, K101L
# B30: 13-7 (ligand)
# chain: B28 chain with D56S, E60Q, L90A, Q91N, N93T, K94S, E96R, R98M, P99S, K101L
# B31: 13-9 (ligand)
# chain: GQNHHEVVKFMDVYQRSYCHPIETLVDIFQEYPDEIEYIFKPPCVSVYRCGGCCNDEGLECVPTEESNITMQIMRITVPLSQGPKPVTISFLQHNKCECRPKKD
# Target: T2, VEGFR-2-Fc (UniProt P35968 20-322)
# T2 construct: domain: first 3 Ig domains; conditioned supernatant of 293T cells; also called VEGFR-2-Fc fusion protein; not shown: Fc fragment of the pIg vector
# T2 sequence (P35968 20-322): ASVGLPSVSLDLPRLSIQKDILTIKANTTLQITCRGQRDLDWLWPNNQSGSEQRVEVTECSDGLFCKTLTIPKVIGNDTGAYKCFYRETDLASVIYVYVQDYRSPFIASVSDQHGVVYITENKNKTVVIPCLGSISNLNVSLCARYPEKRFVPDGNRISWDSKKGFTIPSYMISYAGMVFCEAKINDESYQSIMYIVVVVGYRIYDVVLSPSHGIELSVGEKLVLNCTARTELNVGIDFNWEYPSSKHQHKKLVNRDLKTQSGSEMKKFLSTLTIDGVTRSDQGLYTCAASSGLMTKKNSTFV
# Test: receptor-Fc IP
# Procedure, shortened: (§1)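 Binding of ligand from sample supernatant measured by pentahistidine-antibody immunoprecipitation. IP mix: PBS with 1.5% BSA, 0.06% Tween 20, 3 μg/ml heparin and 400 ng/ml fusion protein, added 1:2 to sample supernatant.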
row,Binder,binding result
1,B1,binds
2,B2,binds
3,B3,no binding
4,B4,no binding
5,B5,binds
6,B6,binds
7,B7,no binding
8,B8,no binding
9,B9,no binding
10,B10,no binding
11,B11,binds
12,B12,binds
13,B13,no binding
14,B14,no binding
15,B15,no binding
16,B16,no binding

row,Binder,binding result
1,B17,no binding
2,B18,no binding
3,B19,no binding
4,B20,no binding
5,B21,no binding
6,B22,no binding
7,B23,no binding
8,B24,no binding
9,B25,binds
10,B26,no binding
11,B27,binds
12,B28,binds
13,B29,binds
14,B30,binds
15,B31,no binding

# Target: T3, VEGFR-1-Fc (UniProt P17948 27-338)
# T3 construct: domain: first three Ig domains; expressed in Drosophila S2 cells, purified on Protein A sepharose; also called VEGFR-1-Fc fusion protein; not shown: Fc fragment from the Signal-pIgPlus vector
# T3 sequence (P17948 27-338): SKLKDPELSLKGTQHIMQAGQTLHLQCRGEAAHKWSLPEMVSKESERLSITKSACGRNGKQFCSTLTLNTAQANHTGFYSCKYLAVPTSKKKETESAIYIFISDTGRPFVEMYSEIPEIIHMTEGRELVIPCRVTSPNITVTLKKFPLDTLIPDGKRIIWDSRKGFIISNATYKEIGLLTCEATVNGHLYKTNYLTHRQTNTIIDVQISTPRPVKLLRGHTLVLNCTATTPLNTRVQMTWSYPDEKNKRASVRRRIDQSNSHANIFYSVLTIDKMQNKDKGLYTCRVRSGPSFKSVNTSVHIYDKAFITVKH
# Test: receptor-Fc IP
# Procedure, shortened: as §1
row,Binder,binding result
1,B1,binds
2,B2,binds
3,B3,binds
4,B4,binds
5,B5,no binding
6,B6,binds
7,B7,no binding
8,B8,no binding
9,B9,no binding
10,B10,no binding
11,B11,no binding
12,B12,no binding
13,B13,no binding
14,B14,no binding
15,B15,no binding
16,B16,no binding

row,Binder,binding result
1,B17,no binding
2,B18,no binding
3,B19,no binding
4,B20,no binding
5,B21,no binding
6,B22,no binding
7,B23,no binding
8,B24,binds
9,B25,binds
10,B26,binds
11,B27,binds
12,B28,binds
13,B29,binds
14,B30,binds
15,B31,binds

# Target: T1, VEGFR-3-Fc
# Test: receptor-Fc IP
# Procedure, shortened: as §1
row,Binder,binding result
1,B1,no binding
2,B2,binds
3,B3,binds
4,B4,binds
5,B5,binds
6,B6,binds
7,B7,no binding
8,B8,no binding
9,B9,no binding
10,B10,no binding
11,B11,binds
12,B12,binds
13,B13,no binding
14,B14,no binding
15,B15,no binding
16,B16,no binding

row,Binder,binding result
1,B17,no binding
2,B18,no binding
3,B19,no binding
4,B20,no binding
5,B21,no binding
6,B22,no binding
7,B23,binds
8,B24,no binding
9,B25,no binding
10,B26,no binding
11,B27,no binding
12,B28,no binding
13,B29,no binding
14,B30,no binding
15,B31,no binding
